± gives the uncertainty stated by the source.

The nature of this data set: amyloid nucleation score (Sup35N fusion, yeast selection) (log enrichment); library NNK1; higher = more nucleation; inactive = no reads after selection. In short, it runs like this: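 Using DiMSum, nucleation scores were taken as the log enrichment of output over input reads, centred on the mode score of non-aggregating sequences. The input and output reads came from Illumina sequencing of plasmid inserts, with sequences under 100 input reads excluded. The yeast were psi-negative, expressed Sup35N fused to peptides of 20 random codons, were induced with 100 μM copper sulfate for 24 hours, and were grown 7 days at 30°C on medium lacking adenine and uracil.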
RTSLNLNIRNTWAKWLGAEF displayed an amyloid nucleation score of 4.29 ± 0.1.
Under RTSLSLSKVAFNWMFQRYSS stands 0.181 ± 1.
Turning to RVAYSGEL, the amyloid nucleation score came out at 0.196 ± 0.83.
Under RVDHVGRGQSREGGPDAGRV stands 0.217 ± 0.26.
Under RVFLQTGWVCGVRHANNRLR stands -0.006 ± 0.87.
The substance RVFQSNPCGT had an amyloid nucleation score of 0.109 ± 1.4.
Take RVGAPFNLVRSCSGATLCEV: the amyloid nucleation score is -0.023 ± 0.63.
With RVGESVI, the amyloid nucleation score is 0.348 ± 0.55.
RVGKYDLKSRDLGVGVDGVG yielded an amyloid nucleation score of 0.586 ± 0.29.
Under RVGQSCCDFT stands -0.047 ± 1.1; under RVILARHHPDDCMGLR, -0.26 ± 0.39; under RVITYSV, -0.016 ± 1.4.
With RVKEPFRTYSRTALMC, the amyloid nucleation score amounted to 0.306 ± 0.41.
Under RVKYAGGPIGYLFCLWVLCW stands -0.895 ± 1.5.
For the substance RVNLKGWKRHSIRRSNMYRV, the amyloid nucleation score result was “inactive”.
As for RVSFQIVTVGWC, the amyloid nucleation score was -1.13 ± 1.2.
Under RVSMVEVNLIYYMLPGHA stands -0.125 ± 0.54.
Take RVSVDRPQRVGTGSPCCGGD: the amyloid nucleation score was 2.77 ± 0.11.
Substance RVTDLYFASGGQLMQRSVLL gave an amyloid nucleation score of 0.331 ± 0.6.
Under RVTFLWLCLYQGMVALVNSP stands -0.156 ± 0.84; under RVVMLCLVCLFGVRGS, 0.827 ± 0.52.
Under RVVRKPCFPGVGRILSADLA stands 0.958 ± 0.59; under RWDYDWNQVSCNDSRIGKLT, 0.565 ± 0.61; under RWGDHKQC, 0.041 ± 0.41.
Under RWNFFTFWFLW stands 0.048 ± 0.46; under RWPDQCLLMLWMVLLFPSWE, -0.552 ± 0.28.
Turning to RWQAFGTELYGTSWSFREYG, the amyloid nucleation score turned out to be 0.148 ± 0.47.
Under RWSLAWKIMCEL stands 0.055 ± 0.3; under RWYVEPSSMFLSRLDGLFYK, -0.702 ± 1.9; under RYDSRFALPLDLS, -0.245 ± 0.45.
Take RYFLEMISRYISRN: the amyloid nucleation score entry is “inactive”.
Under RYGAESELTPRSASHGYWKF stands -0.313 ± 1.1; under RYICSYCYALCGFGDYYGGK, 0.24 ± 0.34.
As for RYLDSLYKPRYYYQMVAIYG, the amyloid nucleation score came to 0.004 ± 0.41.
On to RYLIPTYF, for which the amyloid nucleation score is -1.76 ± 0.57.
In the case of RYMDMLLRTDWDWLVSQCRF, the amyloid nucleation score was -0.344 ± 0.33.
Under RYNCVDV stands -0.765 ± 0.52; under RYNMPFYRDRRFCFFEKGLG, -0.077 ± 0.77; under RYPPG, -0.077 ± 1.1.
As for RYSFLANGASSFGCVVLFSL, the amyloid nucleation score was determined as 0.503 ± 0.93.
On to RYSGFLSVSLL, for which the amyloid nucleation score is -0.087 ± 1.
Under RYSYFSSASCLRYRAPKGRG stands 0.098 ± 0.32; under RYTEAASICRLVLGGQGVRI, -0.155 ± 0.96; under RYTIDLMSFNIKFWSHTLLH, -0.869 ± 1.5.
RYVNRT: the amyloid nucleation score was -0.497 ± 1.2.
Turning to RYVTDSGVGSIPRYLIKCSR, the amyloid nucleation score was -0.111 ± 0.42.
Under RYWLYVKFGWYLTDGFYSGS stands 0.665 ± 0.29; under RYYLISEPILWIYGY, -0.031 ± 0.33.
With RYYNFFMGLTWG, the amyloid nucleation score was -0.395 ± 0.48.
Consider RYYRVLLKFVLLSLVCTRYA, for which the amyloid nucleation score was 0.578 ± 0.19.
Under SAAVGLLVHQYRSSELQLFN stands 0.136 ± 1.
Under SADPFVFVALQWNHGVGSWR stands 4.06 ± 0.069; under SADPSNYRERIFLKLMKLHG, -0.514 ± 0.37.
Under SAFSLIGLIVMNAGK stands 6.04 ± 0.076.
For the substance SAILVLFEVHFMAPLLCHYL, the amyloid nucleation score turned out to be 0.208 ± 0.42.
Consider SALHVHRVKGSRREVSRDT, for which the amyloid nucleation score is -0.072 ± 0.31.
With SALSGWVANSCYEVRGLRNV, the amyloid nucleation score entry was “inactive”.
Under SANMKYRTLKQSLG stands 0.176 ± 0.52.
Under SANRTHNWY stands -0.451 ± 0.44; under SAPIDISMQLC, -0.18 ± 1.7.
Take SARHSMAEAMEYYIFGWVPR: the amyloid nucleation score is -1.16 ± 1.2.
In the case of SAVQGCNGRCCYFGRGWWSG, the amyloid nucleation score is 3.4 ± 0.083.
Regarding SCDFILLLAVT, the amyloid nucleation score worked out at 0.352 ± 0.36.
On to SCDMAEFSEDLTLCLLNHK, for which the amyloid nucleation score is -0.651 ± 1.7.
SCGCYKSSLVNLL returned an amyloid nucleation score of 0.328 ± 0.9.
Under SCGLTCDAEYGRGFPGLCMM stands 0.001 ± 1.1; under SCGNNYTSV, -0.236 ± 0.2; under SCKLIDRAILICWRSPTALV, 0.109 ± 1.6.
In the case of SCLPDQMKVVVPLMWLKFSR, the amyloid nucleation score is -0.266 ± 0.33.
Under SCLYQGCYLNCVIDIMGCGL stands 5.83 ± 0.089; under SCPGK, 0.001 ± 0.44.
Under SCPVPKLLAIGLSHVRSFGF stands -0.47 ± 0.42; under SCPWLDSSLCFMNVGVLIYK, 3.37 ± 0.062.
Under SCQATLLFLSYSSNVGLIST stands -0.267 ± 1.1; under SCSLITQGFRYPWLIYHRCY, 0.436 ± 0.93; under SCSPGTYSWFNWWYKSPGVE, -0.021 ± 0.65.
The substance SCSYLSKYTYRREMVYGNEV yielded an amyloid nucleation score of 0.002 ± 0.22.
Take SCTPWAVLFMLKSALGSLRG: the amyloid nucleation score was determined as 0.708 ± 0.71.
Under SCVLRRNSHRIMDSYPRYGQ stands 0.151 ± 0.29; under SDAGARKIIFCFEIITQHPV, -0.235 ± 0.42.
Under SDASHHHRYRESHDYCFFRK stands 0.272 ± 0.4; under SDFTIINFQYFLASCCTGYV, 7.602 ± 0.048.
Under SDIMGTVLSYFGINLVYAPC stands “inactive”; under SDKLTRFSTRVFR, -0.586 ± 0.39.
As for SDLMWVLSCESLRITHRLVG, the amyloid nucleation score was 1.93 ± 0.56.
Under SDMYIL stands 0.807 ± 0.43; under SDNTMSPKLCLMASWVRIST, 0.418 ± 0.23; under SDNVSRLRILDR, 1.93 ± 0.47.
Under SDRNERSVLSTCFGGCVPTG stands 1.14 ± 0.24.
With SDVLYIFTYMDKCQRSRLGV, the amyloid nucleation score turned out to be 0.096 ± 0.26.
As to SDVWGWWGRSRVTADYFADV, the amyloid nucleation score was -1.17 ± 1.7.
Under SELIAQDMPQIENLTVDAAW stands -0.38 ± 0.35; under SEMGYPGWTGKERKRLSNWA, -0.989 ± 0.8.
Under SEQSMTY stands “inactive”; under SETQNRLS, -0.024 ± 0.33.
Under SFAADLFPRLVKACYSGILM stands -0.413 ± 1.5; under SFCAYFVAGIAGNIRVS, 0.098 ± 0.42.
Consider SFCMMLVSLVFSSKKISHHA, for which the amyloid nucleation score was determined as 0.877 ± 0.49.
Under SFDRCCRGFAWISYGEQTAY stands 0.219 ± 0.53; under SFFGFMVMTSRDDRFRLQ, 3.04 ± 0.085.
Under SFFLLPMWLIVGSRGHQRRT stands “inactive”; under SFKWLGTFRYSYTKSTEHVW, -0.534 ± 1.2.
For the substance SFLNINPRQFSWIYCPLVVY, the amyloid nucleation score was found to be 2.94 ± 0.23.
In turn, SFSIN came in with an amyloid nucleation score of 0.238 ± 0.29.
On to SFSSPHLPYTCGSSIG, for which the amyloid nucleation score was determined as 0.258 ± 0.66.
The substance SFSTKPTCRPPILHSLERVT had an amyloid nucleation score of 3.62 ± 0.064.
Under SFVCRCFSMCNGEILFLIPY stands 0.644 ± 1; under SGAGVGSPVVKELSWFKLKV, 0.331 ± 0.77; under SGAPESYGDTNRRIVSSCFL, “inactive”.
Under SGAPRSCFNHSVFRMRASCL stands 0.114 ± 1.4; under SGAVCIQALKVDTQCFADMI, -0.413 ± 0.38; under SGGWTSLDGDMSCSSVTYLV, -0.703 ± 0.84.
Under SGHDGARVVMRRILYTSKSG stands 0.291 ± 0.34.
With SGIRLM, the amyloid nucleation score is -1.32 ± 1.8.
Under SGKYAFLFLVYCTGVLMKCW stands -1.17 ± 1.7.
Under SGLFMWYGSQTPYNIMMKQK stands “inactive”; under SGLFPVLGEHGNHRVSGSI, -1.4 ± 1.6.
Under SGNKGRLSLLYYILFMPWLA stands -0.412 ± 1.
SGRPGTAQLRVVLGHNQKCA: the amyloid nucleation score worked out at 1.12 ± 0.97.
In the case of SGRYMWQEISLMFCLSDVSP, the amyloid nucleation score was 0.836 ± 0.58.
Under SGSGRCTNLSCVGGFGKWLM stands 0.714 ± 0.6; under SGTESEFKVKMNKLQSSYMG, -0.022 ± 0.45.
Substance SGVLLINGVA returned an amyloid nucleation score of 0.699 ± 0.42.
Take SHGVVYGFIMLVMEEYLRQQ: the amyloid nucleation score was -0.376 ± 0.27.
Turning to SHLLLHSLWSDPGIIVDLYT, the amyloid nucleation score result was “inactive”.
Under SHNGCKIWGMDNLIVH stands -0.616 ± 0.46.
Under SHPMDKRLWEKSYKAVGVCV stands 0.174 ± 0.58; under SHRRGVKSTFLMRRLHYMWY, 0.168 ± 0.62; under SHRSRGLANRSCDGVPTVRR, 1.84 ± 0.46.
In the case of SHVLCSDTNTI, the amyloid nucleation score result was “inactive”.
Under SIDFV stands 0.989 ± 0.88.
On to SIDGWNSKVKGFEFRMGGT, for which the amyloid nucleation score was -0.045 ± 0.32.
Under SIDVSDSSRDGYSDMWSKCK stands -0.164 ± 0.24; under SIFLKIPNREVLSSFRWTCF, -0.372 ± 0.22; under SIFSSNCNL, -0.36 ± 0.24.
Under SIIYQVRRLCGSYVSILGSQ stands 0.251 ± 0.69.
In turn, SIKCGVVHLNRMVRAQSKLC had an amyloid nucleation score of 0.136 ± 1.5.
For SIKFIRTYWWITNSVDKFV, the amyloid nucleation score entry is “inactive”.

The values are drawn from the supplement of paper PMC12042874.
